Measured values taken from paper PMC12931234, “Allosteric Modulation of Pathological Ataxin‐3 Aggregation: A Path to Spinocerebellar Ataxia Type‐3 Therapies” (Advanced Science, 2025).

Biological target: the molecule itself
Assay: thioflavin T fluorescence aggregation assay; 5 µM protein (monomer peak from Superose 12), 30 µM ThT, 37 °C, 20 mM HEPES pH 7.5, 150 mM NaCl, 1 mM DTT; without or with CLR01 or CLR03; amyloid self-assembly

B1: Truncated ataxin-3 variant comprising the N-terminal globular Josephin domain (Atx3 JD) (domain or fragment, human, UniProt P54252-2 1-180, looked up)
chain: MESIFHEKQEGSLCAQHCLNNLLQGEYFSPVELSSIAHQLDEEERMRMAEGGVTSEDYRTFLQQPSGNMDDSGFFSIQVISNALKVWGLELILFNSPEYQRLRIDPINERSFICNYKEHWFTVRKLGKQWFNLNSLLTGPELISDTYLALFLAQLQQEGYSIFVVKGDLPDCEADQLLQM
notes: Ataxin-3 (Atx3), human, UniProt P54252-2, N-terminal globular Josephin domain; printed MW 23 767.87 Da; The text names residues up to R182; NMR models of JD: PDB 1YZB and 2AGA (cited); also called isolated JD; not shown: His6, N-terminal, kept
binding result: binds
